Source: paper PMC11500612, “Differential effects of inosine monophosphate dehydrogenase (IMPDH/GuaB) inhibition in Acinetobacter baumannii and Escherichia coli” (Journal of Bacteriology, 2024)

Target: the molecule itself
Experiment: crystal structure

B1: A. baumannii GuaB with CBS domain deletion protein (M1-G488_ΔM93-R201) (enzyme)
chain: MLTIVQEALTFDDVLLLPAYSTVLPKDVSLKTRLTRGIYLNIPLVSAAMDTVTESRMAIAMAQNGGIGILHKNMDIAAQAAEVRRVKKFEAGKAESYPNSCKDDLGRLRVGAAVGTGADTPSRVEALVEAGVDVIVVDTAHGHSAGVIERVRWVKQNFPQVQVIGGNIATGDAALALLDAGADAVKVGIGPGSICTTRIVAGIGMPQISAIDSVASALKDQIPLIADGGIRFSGDMAKAIGAGASTIMVGSLLAGTEEAPGEVEFFQGRYYKAYRGMGSLGAMAGATGSADRYFQDSKAGAEKLVPEGIEGRVPYKGPMGNIVHQMMGGLRSSMGYTGSAVIEDLRQNAKFVKITSAGMSESHVHDVTITKEAPNYRVG
notes: also called A. baumannii GuaBΔCBS; GuaB^Ab; source: expressed, purified, and crystallized as described (28)
B1: binds.
